Molecular target: par6_caeel par-6 (UniProt Q9NAN2)
Sequence (Q9NAN2 whole entry): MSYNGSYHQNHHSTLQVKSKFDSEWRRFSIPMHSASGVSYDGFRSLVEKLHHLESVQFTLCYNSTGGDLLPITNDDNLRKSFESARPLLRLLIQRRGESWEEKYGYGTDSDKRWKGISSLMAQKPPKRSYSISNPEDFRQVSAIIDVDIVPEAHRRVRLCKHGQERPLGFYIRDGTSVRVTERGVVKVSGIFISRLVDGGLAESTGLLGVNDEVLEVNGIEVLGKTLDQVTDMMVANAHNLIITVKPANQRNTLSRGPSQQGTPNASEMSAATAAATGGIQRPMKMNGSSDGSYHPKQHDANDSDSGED

Chain of Cell division control protein 42 homolog (Caenorhabditis elegans), Q05062 T17N (Q05062 whole entry T17N): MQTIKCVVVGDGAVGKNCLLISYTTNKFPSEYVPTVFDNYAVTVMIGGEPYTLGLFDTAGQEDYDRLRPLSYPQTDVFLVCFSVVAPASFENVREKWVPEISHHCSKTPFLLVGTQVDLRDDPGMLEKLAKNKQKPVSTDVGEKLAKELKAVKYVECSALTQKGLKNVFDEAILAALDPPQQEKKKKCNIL

“Cell division control protein 42 homolog (Caenorhabditis elegans), Q05062 T17N” was tested, and the “effect of a mutation on the interaction” value was “disrupting interaction”.

— IntAct's records for PubMed 11412997
